Data taken from PMC4058522, “Structural Basis for Phosphorylation-Dependent Recruitment of Tel2 to Hsp90 by Pih1” (Structure(London, England:1993), 2014).

Target: T1, Tah1 (yeast, full-length) (yeast), P25638
T1 chain: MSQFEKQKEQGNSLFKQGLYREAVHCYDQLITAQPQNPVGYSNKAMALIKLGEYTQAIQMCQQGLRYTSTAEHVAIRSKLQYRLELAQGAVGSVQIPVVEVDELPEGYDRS
Assay: cross-linking; lysine-specific crosslinker DMS, in solution, SDS-PAGE
Conditions: remark: other sources report otherwise

B1: Tah1 (yeast, full-length), P25638 1-111 (natural protein)
chain: MSQFEKQKEQGNSLFKQGLYREAVHCYDQLITAQPQNPVGYSNKAMALIKLGEYTQAIQMCQQGLRYTSTAEHVAIRSKLQYRLELAQGAVGSVQIPVVEVDELPEGYDRS
stoichiometry N: 2
